{"source": "paper PMC12469859", "about": "(Structure (London, England : 1993), 2025)", "binders": {"B1": {"name": "Neisseria gonorrhoeae BamD (NgBamD) (natural protein, N. gonorrhoeae FA1090, UniProt Q50985 17-267, looked up)", "chain": "CATQGTADKDAQITQDWSVEKLYAEAQDELNSSNYTRAVKLYEILESRFPTSRHARQSQLDTAYAYYKDDEKDKALAAIERFRRLHPQHPNMDYALYLRGLVLFNEDQSFLNKLASQDWSDRDPKANREAYQAFAELVQRFPNSKYAADATARMVKLVDALGGNEMSVARYYMKRGAYIAAANRAKKIIGSYQNTRYVEESLAILELAYKKLDKPQLAADTRRVLETNFPKSPFLTHAWQPDDMPWWRYWH"}, "B2": {"name": "Neisseria gonorrhoeae BamC (NgBamC), with the HG2 domain (natural protein, N. gonorrhoeae FA1090, UniProt A0ACH0F7W2 42-398, looked up)", "chain": "CSGSKTEQPKLDYQSRSHRLIKLEVPPDLNNPDQGNLYRLPAGSGAVRASDLEKRRTPAVQQPADAEVLKSVKGVRLERDGSQRWLVVDGKSPAEIWPLLKAFWQENGFDIESEEPAIGQMETEWAENRAKIPQDSLRRLFDTVGLGGIYSTGERDKFIVRIEQGKNGVSDIFFAHKAMKEVYGDKNKDTTMWQPSASDPNLEAAFLTRFMQYLGVDGRQAENALAKKPTLPAANEMARIEGKSLIVFGDYGRNWRRTGLALDRIGLTVVGQNTERHAFLVQKAPNESNAVTEQKPGLFKRLLGKGKAEKPAEQPELIVYAEPVADGSRIVLLNKDGSAYAGKDASALLGKLHSELR"}, "B3": {"name": "Neisseria gonorrhoeae BamA (NgBamA) (natural protein)", "chain": "FTIQDIRVEGLQRTEPSTVFNYLPVKVGDTYNDTHGSAIIKSLYATGFFDDVRVETADGQLLLTVIERPTIGSLNITGAKMLQNDAIKKNLESFGLAQSQYFNQATLNQAVAGLKEEYLGRGKLNIQITPKVTKLARNRVDIDITIDEGKSAKITDIEFEGNQVYSDRKLMRQMSLTEGGIWTWLTRSDRFDRQKFAQDMEKVTDFYQNNGYFDFRILDTDIQTNEDKTRQTIKITVHEGGRFRWGKVSIEGDTNEVPKAELEKLLTMKPGKWYERQQMTAVLGEIQNRMGSAGYAYSEISVQPLPNAGTKTVDFVLHIEPGRKIYVNEIHITGNNKTRDEVVRRELRQMESAPYDTSKLQRSKERVELLGYFDNVQFDAVPLAGTPDKVDLNMSLTERSTGSLDLSAGWVQDTGLVMSAGVSQDNLFGTGKSAALRASRSKTTLNGSLSFTDPYFTADGVSLGYDIYGKAFDPRKASTSVKQYKTTTAGGGVRMGIPVTEYDRVNFGLAAEHLTVNTYNKAPKRYADFIRKYGKTDGADGSFKGLLYKGTVGWGRNKTDSASWPTRGYLTGVNAEIALPGSKLQYYSATHNQTWFFPLSKTFTLMLGGEVGIAGGYGRTKEIPFFENFYGGGLGSVRGYESGTLGPKVYDEYGEKISYGGNKKANVSAELLFPMPGAKDARTVRLSLFADAGSVWDGRTYTAAENGNNKSVYSENAHKSTFTNELRYSAGGAVTWLSPLGPMKFSYAYPLKKKPEDEIQRFQFQLGTTF"}}, "data": [{"molecular_target": "T1, Neisseria gonorrhoeae BamE (NgBamE) with a C-terminal 10x histidine tag (N. gonorrhoeae FA1090, UniProt Q5F5Y8 18-125)", "T1 sequence (looked up)": "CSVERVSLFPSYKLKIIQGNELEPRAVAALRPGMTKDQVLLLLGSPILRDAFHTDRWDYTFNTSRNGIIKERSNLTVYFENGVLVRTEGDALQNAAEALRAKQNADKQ", "test": "co-purification", "values": [{"binder": "B1", "stoichiometry N": 1}, {"binder": "B2", "stoichiometry N": 1}, {"binder": "B3", "stoichiometry N": 1}]}]}
